Assay results: patent publication EP0769025B1

What was measured:
[1] = target: monoclonal antibody AF-28; assay: competition ELISA, 32-mer as both coating (25 pmoles/ml, Figure 6b) and standard antigen
[2] = target: monoclonal antibody AF-28; assay: competition ELISA, competitor against plate-coated 32-mer for AF-28

IC50 [1] | times less competitive than the 32-mer [2] | Binder
0.016 µM |  | FFGVGGEEDITVQTVTWPDMELPLPRNITEGE [… (FFGVG...EGE 32-mer) synthetic peptide]
 | 230 times | FGVGGEEDI [… 9-mer]
